For one substance, Emax of β-arrestin 2 conformational change (BRET biosensor), HEK 293-hUT cells results are on record in publication doi:10.1101/2020.11.23.394270.

This test deals with T1, human urotensin II receptor (hUT), stably expressed in HEK 293 cells (human) (UniProt Q9UKP6).
T1 sequence: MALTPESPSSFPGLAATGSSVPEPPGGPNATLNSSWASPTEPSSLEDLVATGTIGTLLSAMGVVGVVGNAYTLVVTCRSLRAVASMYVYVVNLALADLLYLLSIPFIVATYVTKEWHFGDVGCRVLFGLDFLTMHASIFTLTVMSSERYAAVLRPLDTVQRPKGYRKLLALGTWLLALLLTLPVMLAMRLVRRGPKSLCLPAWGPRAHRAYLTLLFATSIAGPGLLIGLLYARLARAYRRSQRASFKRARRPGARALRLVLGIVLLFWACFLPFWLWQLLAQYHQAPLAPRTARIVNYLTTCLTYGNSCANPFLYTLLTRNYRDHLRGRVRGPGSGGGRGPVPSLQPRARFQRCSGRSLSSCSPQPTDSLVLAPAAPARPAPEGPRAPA

In the case of human urotensin II (ligand), the Emax of β-arrestin 2 conformational change (BRET biosensor), HEK 293-hUT cells was found to be 100%.
